Measurements as given in patent US8426686B2, “Polyunsaturated fatty acid production in heterologous organisms using PUFA polyketide synthase systems” (DSM IP Assets B.V., priority 2006, dated 2013).

B1: ScACS-8: Schizochytrium acyl-CoA synthetase, SEQ ID NO:96/97 (protein, listed as Schizochytrium sp.)
chain: MDAEKVIKAGAAAGAAYLGWKYLDEKHGISHDLELARRLLKLKKEINERNTKRVFNVTNMWYEAYAKNPKKPALLYLDEVVTYQDMEDRSNQVANWLLSKGLKRGDTVALLMENRPEFVISWLGMTKIGVKVALINTSIKQKPLLHCLKISGCKIVLFGSELAEPILDIKDELADLGIELAAEGAREASPDWIEVVNPEIEASPKTATSPKLREGIGMQDVFGFIYTSGTTGLPKAAVILHQKMFSFGALMTNAFQCTQDDIVYTCLPLFHSAGGGLGIGIMLYTGATVVIKRKFSVTDFWSDCVKYKCTVVQYIGELCRYLVMAESRPEETQHKVRLAIGNGLRPEIWAEFQERFQIPQIGEFYGATEGNGALVQHCTKPEDRGAVGRMGSLLMRVTGVKFARFDVLEEAPVRGADGFCIECDVDEPGELLFPIRDNDPSSAFAGYNDPKATAKKIITDAFTKGDKYFRTGDLLSRDARGRIYFRDRIGDTFRCKGENVSTSEVAEVLSTYPGIEELNIYGVQIPNNEDGRFPCAALTPKDSDLSNVDLKGFYEHAKKNLPSYSIPMFIRVQPVMPVTATMKHQKVQLRKEGMDIHVIKDPMYWLHDVKKEYDPLTEEDYARIIGQRARL
B2: ScACS-3: Schizochytrium acyl-CoA synthetase, SEQ ID NO:86/87 (protein, listed as Schizochytrium sp.)
chain: MGCSGSKPAAPGEVPAVQGYEVTEEVAPGPYDPEKGPYYVSNKAERREIIFAAKGVASEATTPAMTLSKMFRKAAEASKDEVALAVEWPVPEIGADGKIPDSLPLDKWRTWTFGQYYADSHAMARAIVALGAERFDGVTIFGFNSPFWLMAQMAATLSTTLPAGIYPTDTAEQVRYKLRYTDTAVAFCGVEKEFTMLRAAVEDAPDLKAIVCWAHLPMVKTITREDGSKVKVMSWQEALALGEITPPAEVDARIEAQNPGDCAELVFTSGTTGLPKAVMLSHDNLCFAITSIVSTLEDFGRSGPESHLSYLPLSHIAGQEMDVLLPLVVTAFRESHHAVYFVRPYDLKTGTLIDRVKTVQPTAFLGVPRVYEKIMAKMRAKGASVKGLKKKIVQYSKKKGLEYQRNLEVGGSGGKPSNYGFAEKKVLSKVKEALGFTRLKFAISGAAPMSREVQEYFAGIGIAILDVYGASESTGGVTGNSIKAHQFGTVGHTLPGMDVRVFQKAEGGDSSAETGLGELREPARAKDIFHPSEEEQGEVCFRGRSVMLGYMANPKLGEEHVAEVERKNASAIDRHGWYHSGDKGACSKKNMFVITGRYKEIIIGAGGENIAPLPMEDAVKSLAPGVANAIMIGDKRKFNIMLITLRAEGATGEFPGSDNLDPDVRSIGSDSTRTIQKAMADSKWIEHVRDAISKTNANGDACQSNAWKIGRFTILPYDISIVGGELTPTLKLKRNFVDEKYKAVIDHVYAHEGDSKDLTYVPCPIDRVPRKISGDESAAGAASPEANVAEPVTAESGSPSEVTTEAKPANETDDAESKDAAAPLAAKVDTTVPDVAQPQAAS
B3: ScACS-5: Schizochytrium acyl-CoA synthetase, SEQ ID NO:90/91 (protein, listed as Schizochytrium sp.)
chain: MLEMREEVVKHEGEAAHFKGVKMKVFPNGFQTMVDIFKVPFEKQVMKNDLLVDETGRMTFQEVFDTAAALGDALVNEYGVEKGDRVVALSKNRNEYIVTMIAATSVGAIFAPLNSYWKTEQLSYGLDDSGAKVVVCDADRYVQLEPLLDGRASALERVLLLRGPGTEKFRPNAKTTAFDEVISKHAGARMPPFPCQKDDPAMIMYTSGTTGNPKGVVLTHRSIGEAMTGAVAAMTYEKTLAATRAGETLPEPEDPSLSAFLLAVPLFHVTGHHCVGLLSIISCRKIVLMSKWDPKLALELIESERITNFTGVPTMALDLMTHPDFKKRDTSTLKSLGGGGAAPPSTMVNDIDKNFKQASPLQAWGMTETNGIATLTEGDMYRRKPESCGKAIPNVEIAIWNARDEPVPAGAEGELVIRGSTCLKEYWNKPEATAKSITAEGWFRTGDIGVIDEEGFLQLKGRSKEIIIRGGENISCVVVENAVYNHDDINEVAAIPVPHPTLGEEVGIAVFSQSGARPSLQSIRDVCGNLARYEMPTHIYYWPEQLPRGDTGKIHKRTILADIKAGKVKDEAVPASKL
B4: DAGAT: Schizochytrium diacylglycerol acyltransferase, SEQ ID NO:100/101; gene knocked out in strain B73-8 (protein, listed as Schizochytrium sp.)
chain: MERPQAQASPARSEARRRRGDRSKGFADEDGETSVNTPNGMQTPYSTSMGSVSSYSSSGDYAMSEAEGSEVDPADDRMGDSIGSKPSSSSVTGRRRLTQEERDYFLRLEKEWREEDAWADQPGSWYSMLAWMPVLIGLRVFNVLLSIAFWPVSFVARVFFGKKIHTVSFWDVPLSRRKQTAVVLLFVMLLPMVVVVYSWTLVLLLFPLTTFPTLCYMVWIIYVDKSPETGSRRPFLRYWKMWRHFANYFPLRLIRTTPLDSRRKYVFCYHPHGIISLGAFGNFATDSTGFSRKFPGIDLRVLTLALNFYCPLLREFLLYLGLCSAAKKSCNQILQRGPGSAIMLVVGGAAESLDSQPGTYRLTLGRKGFVRVALDNGADLVPVLAFGENDVFDTVYLPPNSWARNVQEFVRKKLGFATPIFSGRGIFQYNMGLMPHRRPIIVVVGKPIKMPKIPDELKGRALSTTAEGVALVDKYHEKYVKALRELWNLYKERWAVHRQGSLLIQK

Experiments:
[1] = test system: acyl-CoA synthetases; assay: In vitro activity assay of Schizochytrium FAS-KO cell free homogenate with Triacsin C (HIP extraction, normal phase TLC, phosphorimage); type: biochemical; settings: FAS-KO sample; Triacsin C 0, 25, 100 or 200 uM for 10 minutes, then ATP and Mg+2, additional 20 minutes; effect at higher concentrations
Protocol: An example of a protocol for in vitro activity assays of both FAS and PUFA synthase activities is as follows. In a final volume of 100 uL, mix the enzyme preparation and Buffer A (volume of these 2 components=90 uL) plus the following components added as a cocktail (in 10 uL) to yield the final concentrations indicated in parenthesis: malonyl-CoA (50 uM—a mixture of cold and malonyl-2-^14C-CoA such that the final concentration of radiolabel is 0.65 μCi/mL), NADH (1 mM), NADPH (1 mM) and acetyl-CoA (10 uM). These components and additional components can be adjusted depending on the requirements of the particular experiments. The assay reactions are carried out in glass tubes in a room temperature (˜21° C.) water bath. The time of incubation is dependant on the experimental requirements. The reactions are stopped by one of two methods depending on the work-up protocol. For conversion of fatty acids to fatty acid methyl-esters (FAMEs) using an acidic method, the reaction is stopped by adding the FAME reagent (see below). For extraction of lipids without derivatization, the reaction is stopped by addition of 125 uL of isopropanol:acetic acid (4:1 v/v) (see below). […]

[2] = test system: yeast; assay: FAME analysis of yeast expressing Schizochytrium PUFA synthase and Het I with co-expressed acyl-CoA synthetase; type: cell-based, Saccharomyces cerevisiae; settings: data not shown
Source text: More specifically, the yeast expression system described in the Examples above was modified to accommodate introduction of the fifth ACoAS gene (i.e., the yeast also contained OrfsA, B and C of the Schizochytrium PUFA synthase system and a PPTase (Het I from Nostoc)) using 4 vectors. Yeast expression vectors in which two genes can be cloned (the pESC vectors) were obtained from Stratagene. These vectors are similar to and compatible with the pYES vectors described above. […] This provides confirmation that the accumulation of the products of the PUFA synthase in heterologous host can be increased by co-expression of enzymes that may be more efficient at utilization of those products.
In subsequent experiments, ScACS-3, ScACS-5, ScACS-6 and ScACS-8 were also tested in yeast that contained the genes encoding the Schizochytrium PUFA synthase system (e.g., sOrfA, sOrfB and nOrfC, and HetI), using similar methods as described above.

[3] = test system: Schizochytrium; assay: DAGAT gene knock out in Schizochytrium strain B73-8, lipid profile; type: cell-based; settings: inactivation of the DAGAT gene in Schizochytrium B73-8
Source text: Using the knock out technology described above in Example 1 for FAS in Schizochytrium, the inventors similarly knocked out the DAGAT gene (comprising SEQ ID NO:100) in a Schizochytrium strain, denoted B73-8. […] Accordingly, the inventors concluded that this DAGAT is the primary enzyme responsible for TAG synthesis in Schizochytrium.

Row | Molecule | DHA production in yeast as compared to in the absence of the added acyl-CoA synthetase gene [2] | also measured
1 | CCC/C=C/C/C=C/C=C/C=N/NN=O [Triacsin C] | – | radiolabel in the FFA band (loss after addition of ATP and Mg+2) [1]: blocked the loss of radiolabel from the FFA band
2 | B1 | increased DHA production | –
3 | B2 | increased DHA production | –
4 | B3 | increased DHA production | –
5 | B4 | – | reduction in TAG [3]: ~90%; reduction in mg FAME/gm biomass [3]: ~80%
